± gives the uncertainty stated by the source.
Experiment: self-splicing fitness, log relative to wild type (ln ratio); higher = more splicing; Tetrahymena group I intron in knt gene, E. coli kanamycin selection, DiMSum; sequences stand for … in CUCUCU…GGAGGGAAAAGUUAUCAGGCAUGCACCUGGUAGCUAGUCUUUAAACCAAUAGAUUGCAUCGGUUUAAAAGGCAAGACCGUCAAAUUGCGGGAAAGGGGUCAACAGCCGUUCAGUACCAAGUCUCAGGGGAAACUUUGAGAUGGCCUUGCAAAGGGUAUGGUAAUAAGCUGACGGACAUGGUCCUAACCACGCAGCCAAGUCCUAAGUCAACAGAUCUUCUGUUGAUAUGGAUGCAGUUCACAGACUAAAUGUCGGUCGGGGAAGAUGUAUUCUUCUCAUAAGAUAUAGUCGGACCUCUCCUUAAUGGGAGCUAGCGGAUGAAGUGAUGCAACACUGGAGCCGCUGGGAACUAAUUUGUAUGCGAAAGUAUAUUGAUUAGUUUUGGAGUACUCGUGGUCG
Procedure, shortened: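 Fitness was computed with DiMSum as the error-weighted combination of replicate fold changes, kanamycin versus none, each normalised to wild type. The library randomised all eight intron nucleotides of the P1ex region, with the intron placed in the knt kanamycin-resistance gene on pET-22b(+) in E. coli BL21(DE3). Six replicate transformations were grown overnight at 37°C or 30°C on LB agar with or without 25 μg/mL kanamycin, plus 100 μg/mL carbenicillin, 50 μM IPTG and 0.2% rhamnose. Pooled colonies were amplicon-sequenced on an Illumina HiSeq 2500.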

| Sequence | self-splicing fitness (ln) (30 °C) | self-splicing fitness (ln) (37 °C) |
| --- | --- | --- |
| GUCGAGCAAUAUUACGUACA | -1.02 ± 0.15 | -0.719 ± 0.17 |
| GUCGAGCAAUAUUACGUAGG | -3.66 ± 0.18 | -2.08 ± 0.16 |
| GUCGAGCAAUAUUACGUAUG | -3.13 ± 0.32 | -0.147 ± 0.21 |
| GUCGAGCAAUAUUACGUAUU | -1.52 ± 0.29 | -0.948 ± 0.23 |
| GUCGAGCAAUAUUACGUGAG | -0.54 ± 0.076 | -0.266 ± 0.096 |
| GUCUAGCAAUAUUACGAAUA | -1.87 ± 0.17 | -0.494 ± 0.14 |
| GUCUAGCAAUAUUACGAGAC | -3.7 ± 0.24 | -2.34 ± 0.3 |
| GUCUAGCAAUAUUACGAUCU | -1.57 ± 0.12 | -0.315 ± 0.14 |
| GUCUAGCAAUAUUACGCUAC | -2.41 ± 0.47 | -2.57 ± 0.33 |
| GUCUAGCAAUAUUACGGACG | -0.561 ± 0.15 | -0.711 ± 0.2 |
| GUCUAGCAAUAUUACGGAUA | -1.26 ± 0.099 | -0.0363 ± 0.11 |
| GUCUAGCAAUAUUACGGCUA | – | -2.64 ± 0.33 |
| GUCUAGCAAUAUUACGGGAG | -1.87 ± 0.17 | -0.423 ± 0.11 |
| GUCUAGCAAUAUUACGGGUC | -2.14 ± 0.2 | -1.67 ± 0.17 |
| GUCUAGCAAUAUUACGGGUU | -1.92 ± 0.082 | -0.234 ± 0.083 |
| GUCUAGCAAUAUUACGGUCA | -0.592 ± 0.11 | -0.44 ± 0.12 |
| GUCUAGCAAUAUUACGGUCC | -2.44 ± 0.15 | -1.18 ± 0.13 |
| GUCUAGCAAUAUUACGGUCU | -2.19 ± 0.17 | -0.272 ± 0.16 |
| GUCUAGCAAUAUUACGUACG | -1.29 ± 0.12 | -0.709 ± 0.12 |
| GUCUAGCAAUAUUACGUAUC | -0.834 ± 0.08 | 0.353 ± 0.11 |
| GUCUAGCAAUAUUACGUCAA | -1.4 ± 0.067 | -0.997 ± 0.085 |
| GUCUAGCAAUAUUACGUCGU | -0.819 ± 0.096 | 0.377 ± 0.092 |
| GUCUAGCAAUAUUACGUGAC | -3.73 ± 0.33 | -0.257 ± 0.2 |
| GUCUAGCAAUAUUACGUGAG | -0.175 ± 0.075 | 0.0626 ± 0.093 |
| GUCUAGCAAUAUUACGUUAC | -0.99 ± 0.099 | -0.771 ± 0.096 |
| GUCUAGCAAUAUUACGUUCG | -0.604 ± 0.18 | -0.859 ± 0.17 |

| Sequence | self-splicing fitness (ln) (30 °C) | self-splicing fitness (ln) (37 °C) |
| --- | --- | --- |
| GUGAAGCAAUAUUACGAAUC | -0.696 ± 0.14 | -0.964 ± 0.22 |
| GUGAAGCAAUAUUACGACAU | 0.0507 ± 0.012 | 0.246 ± 0.032 |
| GUGAAGCAAUAUUACGAGAA | -1.97 ± 0.13 | -0.33 ± 0.13 |
| GUGAAGCAAUAUUACGAGCC | – | -2.76 ± 0.48 |
| GUGAAGCAAUAUUACGAGGU | -1.83 ± 0.29 | -1.36 ± 0.26 |
| GUGAAGCAAUAUUACGAGUA | -1.84 ± 0.13 | -1.47 ± 0.16 |
| GUGAAGCAAUAUUACGAGUC | -2.58 ± 0.17 | -0.63 ± 0.23 |
| GUGAAGCAAUAUUACGAUCA | -0.337 ± 0.11 | 0.465 ± 0.13 |
| GUGAAGCAAUAUUACGAUGU | -0.316 ± 0.064 | -0.0235 ± 0.094 |
| GUGAAGCAAUAUUACGAUUU | -0.586 ± 0.051 | 0.316 ± 0.091 |
| GUGAAGCAAUAUUACGCGUG | -0.812 ± 0.057 | -0.134 ± 0.061 |
| GUGAAGCAAUAUUACGCUCA | -1.35 ± 0.12 | -1.62 ± 0.17 |
| GUGAAGCAAUAUUACGCUGG | -1.42 ± 0.12 | -0.76 ± 0.13 |
| GUGAAGCAAUAUUACGGACA | 0.209 ± 0.092 | -0.366 ± 0.1 |
| GUGAAGCAAUAUUACGGAGG | -2.3 ± 0.23 | -2.49 ± 0.41 |
| GUGAAGCAAUAUUACGGAUC | -1.43 ± 0.086 | -0.286 ± 0.13 |
| GUGAAGCAAUAUUACGGCUG | -0.541 ± 0.082 | 0.0938 ± 0.11 |
| GUGAAGCAAUAUUACGGUAC | -0.508 ± 0.12 | -0.311 ± 0.15 |
| GUGAAGCAAUAUUACGGUUG | -1.71 ± 0.076 | -1.13 ± 0.11 |
| GUGAAGCAAUAUUACGUAAA | -1.41 ± 0.086 | -1.51 ± 0.12 |
| GUGAAGCAAUAUUACGUAAC | -1.99 ± 0.26 | -1.23 ± 0.31 |
| GUGAAGCAAUAUUACGUAGG | -2.29 ± 0.14 | -0.218 ± 0.15 |
| GUGAAGCAAUAUUACGUCGG | -0.498 ± 0.077 | 0.15 ± 0.1 |
| GUGAAGCAAUAUUACGUGAC | -2.77 ± 0.23 | -2.18 ± 0.27 |
| GUGAAGCAAUAUUACGUUAC | -2.88 ± 0.11 | -1.52 ± 0.13 |
| GUGAAGCAAUAUUACGUUAG | -1.06 ± 0.098 | 0.151 ± 0.14 |

| Sequence | self-splicing fitness (ln) (30 °C) | self-splicing fitness (ln) (37 °C) |
| --- | --- | --- |
| GUGAAGCAAUAUUACGUUGG | -2.81 ± 0.13 | -1.65 ± 0.12 |
| GUGAAGCAAUAUUACGUUUG | -2.25 ± 0.09 | -1.85 ± 0.12 |
| GUGCAGCAAUAUUACGACAA | -0.582 ± 0.066 | -0.153 ± 0.07 |
| GUGCAGCAAUAUUACGACAC | -1.57 ± 0.25 | -0.906 ± 0.2 |
| GUGCAGCAAUAUUACGACAG | -2.83 ± 0.14 | -1.71 ± 0.16 |
| GUGCAGCAAUAUUACGACUC | -0.543 ± 0.13 | 0.542 ± 0.19 |
| GUGCAGCAAUAUUACGACUG | -4.5 ± 0.39 | -2.84 ± 0.28 |
| GUGCAGCAAUAUUACGAGCU | -1.45 ± 0.062 | -0.353 ± 0.082 |
| GUGCAGCAAUAUUACGAGGA | -3.01 ± 0.2 | -1.74 ± 0.29 |
| GUGCAGCAAUAUUACGAGUA | -2.62 ± 0.34 | -1.8 ± 0.21 |
| GUGCAGCAAUAUUACGAUCU | -0.791 ± 0.052 | -0.194 ± 0.062 |
| GUGCAGCAAUAUUACGAUUA | -1.38 ± 0.13 | -0.611 ± 0.12 |
| GUGCAGCAAUAUUACGCAGA | -2.57 ± 0.46 | -1.53 ± 0.23 |
| GUGCAGCAAUAUUACGCGAA | -1.62 ± 0.1 | -0.106 ± 0.085 |
| GUGCAGCAAUAUUACGCGCG | -2.41 ± 0.13 | -1.98 ± 0.16 |
| GUGCAGCAAUAUUACGCGUA | -1.62 ± 0.13 | -0.278 ± 0.1 |
| GUGCAGCAAUAUUACGCGUU | -2.7 ± 0.11 | -1.18 ± 0.1 |
| GUGCAGCAAUAUUACGGAAA | – | -1.63 ± 0.34 |
| GUGCAGCAAUAUUACGGAGU | -3.05 ± 0.12 | -2.07 ± 0.11 |
| GUGCAGCAAUAUUACGGCCC | -0.475 ± 0.11 | -0.704 ± 0.17 |
| GUGCAGCAAUAUUACGGGCU | -1.95 ± 0.15 | -1.2 ± 0.12 |
| GUGCAGCAAUAUUACGUAAG | 0.0919 ± 0.087 | -0.00974 ± 0.1 |
| GUGCAGCAAUAUUACGUCCA | -1.53 ± 0.28 | -0.793 ± 0.27 |
| GUGCAGCAAUAUUACGUGCA | -3.19 ± 0.15 | -2.41 ± 0.17 |
| GUGCAGCAAUAUUACGUGGG | -2.86 ± 0.11 | -2.01 ± 0.11 |

Source: the supplement of paper PMC7877785
